{
  "source": "paper PMC5589656",
  "about": "“Disruption of DNA repair in cancer cells by ubiquitination of a destabilising dimerization domain of nucleotide excision repair protein ERCC1” (Oncotarget, 2017)",
  "molecular_target": "the molecule itself",
  "assay": "semi-native western blot (SDS PAGE gel, non-boiled and non-reduced samples); input samples of ERCC1-transfected A375 cells, blotted with anti-ERCC1 antibody; with or without 25 uM cisplatin for 5 h",
  "data": [
    {"protein": "ERCC1 (1-297), full-length wild-type human ERCC1, Myc-tagged and Flag-tagged copies (natural protein, UniProt P07992 1-297, looked up, ERCC1, human, full length, residues 1-297 (297 amino acid protein); Self-association was tested with two differently tagged copies; Each copy carries only one of the two tags: the Myc-tagged copy was precipitated and the Flag-tagged copy was detected; The Myc copy is in pcDNA3.1(-)/myc-His A, which as far as I recall adds a C-terminal myc-His; Construct details are in the Supplementary …) MDPGKDKEGVPQPSGPPARKKFVIPLDEDEVPPGVAKPLFRSTQSLPTVDTSAQAAPQTYAEYAISQPLEGAGATCPTGSEPLAGETPNQALKPGAKSNSIIVSPRQRGNPVLKFVRNVPWEFGDVIPDYVLGQSTCALFLSLRYHNLHPDYIHGRLQSLGKNFALRVLLVQVDVKDPQQALKELAKMCILADCTLILAWSPEEAGRYLETYKAYEQKPADLLMEKLEQDFVSRVTECLTTVKSVNKTDSQTLLTTFGSLEQLIAASREDLALCPGLGPQKARRLFDVLHEPFLKVP", "values": [
      {"measurement": "stoichiometry N", "value": 2}
    ]}
  ]
}
